According to the Immune Epitope Database (IEDB):
One block for each sequence: values may come before it.

Legend:
[1] = target: HLA-A*02:12; experiment: IEDB peptide-MHC binding, purified MHC/competitive/fluorescence; filed as Kd, often an IC50 or EC50 that approximates it; ≥ and ≤ were set here for values at or beyond the usual limits of such assays
[2] = target: HLA-A*02:03; experiment: as above
[3] = target: HLA-A*23:01; experiment: as above
[4] = target: HLA-B*18:01; experiment: as above
[5] = target: HLA-A*29:02; experiment: as above
[6] = target: HLA-A*02:01; experiment: as above
[7] = target: HLA-A*03:01; experiment: as above
[8] = target: HLA-A*69:01; experiment: as above
[9] = target: HLA-B*15:17; experiment: as above
[10] = target: HLA-B*27:03; experiment: as above
[11] = target: HLA-B*57:01; experiment: as above
[12] = target: HLA-A*26:01; experiment: as above
[13] = target: HLA-A*02:16; experiment: as above
[14] = target: HLA-B*46:01; experiment: as above
[15] = target: HLA-B*51:01; experiment: as above
[16] = target: HLA-A*02:19; experiment: as above
[17] = target: HLA-A*24:03; experiment: as above
[18] = target: HLA-A*02:01; experiment: IEDB peptide-MHC binding, purified MHC/competitive/fluorescence; ≥ and ≤ were set here for values at or beyond the usual limits of such assays; settings: source organism: Zaire ebolavirus
[19] = target: HLA-B*08:01; experiment: as above
[20] = target: HLA-A*24:02; experiment: as above; settings: source organism: Zaire ebolavirus
[21] = target: HLA-B*07:02; experiment: as above
[22] = target: HLA-A*02:12; experiment: IEDB peptide-MHC binding, purified MHC/direct/fluorescence; filed as Kd, often an IC50 or EC50 that approximates it; ≥ and ≤ were set here for values at or beyond the usual limits of such assays; settings: source organism: Zaire ebolavirus
[23] = target: HLA-A*02:03; experiment: as above; settings: source organism: Zaire ebolavirus
[24] = target: HLA-A*23:01; experiment: as above; settings: source organism: Zaire ebolavirus
[25] = target: HLA-A*29:02; experiment: as above; settings: source organism: Zaire ebolavirus
[26] = target: HLA-A*68:02; experiment: as above; settings: source organism: Zaire ebolavirus
[27] = target: HLA-A*03:01; experiment: as above; settings: source organism: Zaire ebolavirus
[28] = target: HLA-A*02:11; experiment: as above; settings: source organism: Zaire ebolavirus
[29] = target: HLA-A*02:16; experiment: as above; settings: source organism: Zaire ebolavirus
[30] = target: HLA-A*02:19; experiment: as above; settings: source organism: Zaire ebolavirus
[31] = target: HLA-A*24:03; experiment: as above; settings: source organism: Zaire ebolavirus
[32] = target: HLA-B*07:02; experiment: as above; settings: source organism: Zaire ebolavirus
[33] = target: HLA-B*15:01; experiment: IEDB peptide-MHC binding, purified MHC/competitive/fluorescence; filed as Kd, often an IC50 or EC50 that approximates it; ≥ and ≤ were set here for values at or beyond the usual limits of such assays
[34] = target: HLA-B*39:01; experiment: as above
[35] = target: HLA-A*68:02; experiment: as above
[36] = target: HLA-A*02:11; experiment: as above
[37] = target: HLA-A*31:01; experiment: as above; settings: source organism: Escherichia coli E110019
[38] = target: HLA-A*03:01; experiment: IEDB peptide-MHC binding, purified MHC/competitive/fluorescence; ≥ and ≤ were set here for values at or beyond the usual limits of such assays; settings: source organism: Variola virus
[39] = target: HLA-A*11:01; experiment: as above
[40] = source organism: Zaire ebolavirus
[41] = source organism: Escherichia coli E110019
[42] = source organism: Giardia lamblia ATCC 50803

Kd ([1]; source organism: Homo sapiens): 0.17 µM | Kd ([2]; source organism: Homo sapiens): ≥ 20 µM | Kd ([3]; source organism: Homo sapiens): ≥ 20 µM | Kd ([4]; source organism: Homo sapiens): ≥ 20 µM | Kd ([5]; source organism: Homo sapiens): ≥ 20 µM | Kd ([6]; source organism: Homo sapiens): 0.0306 µM | Kd ([7]; source organism: Homo sapiens): ≥ 20 µM | Kd ([8]; source organism: Homo sapiens): ≥ 20 µM | Kd ([9]; source organism: Homo sapiens): ≥ 20 µM | Kd ([10]; source organism: Homo sapiens): ≥ 20 µM | Kd ([11]; source organism: Homo sapiens): ≥ 20 µM | Kd ([12]; source organism: Homo sapiens): ≥ 20 µM | Kd ([13]; source organism: Homo sapiens): ≥ 20 µM | Kd ([14]; source organism: Homo sapiens): ≥ 20 µM | Kd ([15]; source organism: Homo sapiens): ≥ 20 µM | Kd ([16]; source organism: Homo sapiens): ≥ 20 µM | Kd ([17]; source organism: Homo sapiens): ≥ 20 µM
Sequence: SQLPPACPV

Sequence: APFARLLNL
IC50 [18]: ≥ 161 µM | IC50 [19, 40]: 7.08 µM | IC50 [20]: 5.54 µM | IC50 [21, 40]: 0.633 µM | Kd [22]: ≥ 20 µM | Kd [23]: ≥ 20 µM | Kd [24]: ≥ 20 µM | Kd [25]: ≥ 20 µM | Kd [26]: ≥ 20 µM | Kd [27]: ≥ 20 µM | Kd [28]: ≥ 20 µM | Kd [29]: ≥ 20 µM | Kd [30]: ≥ 20 µM | Kd [31]: ≥ 20 µM | Kd [32]: 0.0218 µM | Kd [33, 40]: ≥ 20 µM | Kd [4, 40]: ≥ 20 µM | Kd [6, 40]: ≥ 20 µM | Kd [34, 40]: ≥ 20 µM | Kd [8, 40]: ≥ 20 µM | Kd [9, 40]: ≥ 20 µM | Kd [10, 40]: ≥ 20 µM | Kd [11, 40]: ≥ 20 µM | Kd [12, 40]: ≥ 20 µM | Kd [14, 40]: ≥ 20 µM | Kd [15, 40]: ≥ 20 µM

Kd [33, 41]: ≥ 20 µM | Kd [1, 41]: ≥ 20 µM | Kd [2, 41]: ≥ 20 µM | Kd [3, 41]: ≥ 20 µM | Kd [4, 41]: ≥ 20 µM | Kd [35, 41]: ≥ 20 µM | Kd [6, 41]: ≥ 20 µM | Kd [34, 41]: ≥ 20 µM | Kd [8, 41]: ≥ 20 µM | Kd [36, 41]: ≥ 20 µM | Kd [11, 41]: ≥ 20 µM | Kd [37]: 0.0027 µM | Kd [12, 41]: ≥ 20 µM | Kd [13, 41]: ≥ 20 µM | Kd [14, 41]: ≥ 20 µM | Kd [15, 41]: ≥ 20 µM | Kd [16, 41]: ≥ 20 µM | Kd [17, 41]: ≥ 20 µM
Sequence: RAFWGQVQK

Sequence: MVTLRKERL
IC50 [18]: 18.8 µM | IC50 [19, 40]: 13.9 µM | IC50 [20]: 4.33 µM | IC50 [21, 40]: 10.4 µM

Sequence: VARKHHTKI
IC50 [38]: ≥ 110 µM | IC50 ([19]; source organism: Variola virus): ≥ 348 µM | IC50 ([39]; source organism: Variola virus): ≥ 70.5 µM | IC50 ([21]; source organism: Variola virus): 10.5 µM

Sequence: ALGGSCHTT
Kd [33, 42]: ≥ 20 µM | Kd [1, 42]: ≥ 20 µM | Kd [2, 42]: ≥ 20 µM | Kd [4, 42]: ≥ 20 µM | Kd [5, 42]: ≥ 20 µM | Kd [35, 42]: ≥ 20 µM | Kd [6, 42]: ≥ 20 µM | Kd [7, 42]: ≥ 20 µM | Kd [34, 42]: ≥ 20 µM | Kd [8, 42]: ≥ 20 µM | Kd [36, 42]: ≥ 20 µM | Kd [9, 42]: ≥ 20 µM | Kd [10, 42]: ≥ 20 µM | Kd [11, 42]: ≥ 20 µM | Kd [12, 42]: ≥ 20 µM | Kd [13, 42]: ≥ 20 µM | Kd [14, 42]: ≥ 20 µM | Kd [15, 42]: ≥ 20 µM | Kd [16, 42]: 0.555 µM | Kd [17, 42]: ≥ 20 µM

Sequence: GRRTRREAI
IC50 [18]: ≥ 83.2 µM | IC50 [19, 40]: 7.09 µM | IC50 [39, 40]: ≥ 297 µM | IC50 [21, 40]: ≥ 102 µM
